The term Kd denotes the equilibrium constant for the complex coming apart. A higher Kd goes with weaker binding.

The target of this experiment is T1, human CD19 (human, UniProt P15391 20-556).
T1 construct: whole, on cells; also called CD19 B-cell antigen
T1 sequence (looked up): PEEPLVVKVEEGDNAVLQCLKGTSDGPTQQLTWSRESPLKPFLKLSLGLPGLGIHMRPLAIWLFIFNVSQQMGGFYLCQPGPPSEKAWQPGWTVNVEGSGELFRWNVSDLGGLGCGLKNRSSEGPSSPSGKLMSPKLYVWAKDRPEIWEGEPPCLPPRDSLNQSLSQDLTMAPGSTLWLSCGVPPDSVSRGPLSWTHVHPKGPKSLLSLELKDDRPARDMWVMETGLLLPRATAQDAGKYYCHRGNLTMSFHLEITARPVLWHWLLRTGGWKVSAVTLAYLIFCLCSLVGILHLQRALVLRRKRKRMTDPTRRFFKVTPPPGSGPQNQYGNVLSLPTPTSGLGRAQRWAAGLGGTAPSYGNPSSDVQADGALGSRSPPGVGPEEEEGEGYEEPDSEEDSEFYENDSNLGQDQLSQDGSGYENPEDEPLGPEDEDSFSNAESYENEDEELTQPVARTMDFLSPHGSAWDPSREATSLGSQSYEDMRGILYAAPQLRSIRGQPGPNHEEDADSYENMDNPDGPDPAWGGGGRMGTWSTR
As to the kind of experiment: flow cytometry on CD19-positive cells with varying antibody concentrations and a fluorescently labeled secondary antibody (Benedict method); mean of 6 experiments.

B1: humanized (chimeric) anti-CD19 IgG1 antibody of the disclosure, 4G7chim (antibody, V domains shown)
VH: QVQLQQSGPELIKPGASVKMSCKASGYTFTSYVMHWVKQKPGQGLEWIGYINPYNDGTKYNEKFKGKATLTSDKSSSTAYMELSSLTSEDSAVYYCARGTYYYGSRVFDYWGQGTTLTVTV
VL: DIVMTQAAPSIPVTPGESVSISCRSSKSLLNSNGNTYLYWFLQRPGQSPQLLIYRMSNLASGVPDRFSGSGSGTAFTLRISRVEAEDVGVYYCMQHLEYPLTFGAGTKLEIRR
notes: also called anti-CD19 antibody of the present disclosure; CD19 chimeric antibody
For the molecule B1, the Kd is roughly 5.5 nM.

For the origin of these results see US20090220501A1 (published 2009).
